Measurements from US20250376533A1 (FUTUREGEN BIOPHARMACEUTICAL BEIJING, published 2025).
Positions count from the first letter of the chain named. In names and notes the source's numbering stands.

T1: rat CD40 antigen (ACROBiosystems) (rat, UniProt A6JXD6 20-193)
T1 construct: Bought antigen coated on ELISA plates; construct not described
T1 sequence: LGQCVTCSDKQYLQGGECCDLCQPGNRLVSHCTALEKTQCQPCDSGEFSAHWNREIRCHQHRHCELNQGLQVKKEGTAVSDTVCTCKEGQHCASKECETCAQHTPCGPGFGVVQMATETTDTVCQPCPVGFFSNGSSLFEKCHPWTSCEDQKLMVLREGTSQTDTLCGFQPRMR

B1: anti-PD-L1/CD40 bispecific antibody 1653 (bispecific antibody, human IgG2, kappa)
light: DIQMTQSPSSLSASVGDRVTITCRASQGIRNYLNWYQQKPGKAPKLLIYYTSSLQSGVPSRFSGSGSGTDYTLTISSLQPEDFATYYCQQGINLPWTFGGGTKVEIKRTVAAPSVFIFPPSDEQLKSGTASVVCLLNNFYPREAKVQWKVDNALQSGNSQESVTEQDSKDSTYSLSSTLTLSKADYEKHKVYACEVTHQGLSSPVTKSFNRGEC
heavy: EVQLVESGGGLVQPGGSLRLSCAASGFTFSDYYMSWVRQAPGKGLEWVGFIRNKANAYTTEYAASVKGRFTISRDNSKSTLYLQMNSLRAEDTAVYYCARYGGLKKGWYFDLWGQGTLVTVSSASTKGPSVFPLAPCSRSTSESTAALGCLVKDYFPEPVTVSWNSGALTSGVHTFPAVLQSSGLYSLSSVVTVPSSNFGTQTYTCNVDHKPSNTKVDKTVERKCCVECPPCPAPPVAGPSVFLFPPKPKDTLMISRTPEVTCVVVDVSHEDPEVQFNWYVDGVEVHNAKTKPREEQFNSTFRVVSVLTVVHQDWLNGKEYKCKVSNKGLPAPIEKTISKTKGQPREPQVYTLPPSREEMTKNQVSLTCLVKGFYPSDIAVEWESNGQPENNYKTTPPMLDSDGSFFLYSKLTVDKSRWQQGNVFSCSVMHEALHNHYTQKSLSLSPGGGGGSGGGGSGGGGSGEVQLVESGGGLVQPGGSLRLSCAASGFTFDYYTQCWFRQAPGKEREWVSCISSSEGSTYYADSVKGRFTISRDNSKNTVYLQMNSLKTEDTAVYYCAARKGGPLTIENFFDYWGQGTQVTVSS
notes: First polypeptide chain = anti-CD40 light chain; second polypeptide chain = anti-CD40 heavy chain with the 1541 VHH joined to its C-terminus by a G4S linker
B2: anti-PD-L1/CD40 bispecific antibody 1605 (bispecific antibody, human IgG2, kappa)
light: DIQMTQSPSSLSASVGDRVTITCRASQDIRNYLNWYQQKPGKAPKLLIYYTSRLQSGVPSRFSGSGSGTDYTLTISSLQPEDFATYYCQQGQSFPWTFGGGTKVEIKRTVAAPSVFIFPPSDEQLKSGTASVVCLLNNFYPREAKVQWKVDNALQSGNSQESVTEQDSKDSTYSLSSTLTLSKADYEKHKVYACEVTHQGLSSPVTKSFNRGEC
heavy: B1 heavy with D31N, G49A, L104I, K105R, K106V
notes: as for B1
B3: anti-CD40 monoclonal antibody 1653CD (antibody, human IgG2, kappa, V domains shown)
VH: EVQLVESGGGLVQPGGSLRLSCAASGFTFSDYYMSWVRQAPGKGLEWVGFIRNKANAYTTEYAASVKGRFTISRDNSKSTLYLQMNSLRAEDTAVYYCARYGGLKKGWYFDLWGQGTLVTVSS
VL: DIQMTQSPSSLSASVGDRVTITCRASQGIRNYLNWYQQKPGKAPKLLIYYTSSLQSGVPSRFSGSGSGTDYTLTISSLQPEDFATYYCQQGINLPWTFGGGTKVEIKR
B4: anti-CD40 monoclonal antibody 1607CD (antibody, human IgG2, kappa, V domains shown)
VH: B3 VH with A57G
VL: B3 VL
B5: anti-CD40 monoclonal antibody 1608CD (antibody, human IgG2, kappa, V domains shown)
VH: B3 VH with D31N, A57G, S87R, K106V
VL: B3 VL with G28S, R30S, N34A, Y50A, T51A, I92S, N93S, L94Y
B6: anti-CD40 monoclonal antibody 1654CD (antibody, human IgG2, kappa, V domains shown)
VH: B3 VH with D31N, S87R, K106V
VL: B3 VL with G28S, R30S, N34A, Y50A, T51A, I92S, N93S, L94Y
B7: anti-CD40 monoclonal antibody 1655CD (antibody, human IgG2, kappa, V domains shown)
VH: B3 VH with D31N, K106I
VL: B3 VL with G28T, R30S, N31S, S53T, I92N, N93A, L94Y
B8: anti-CD40 monoclonal antibody 1606CD (antibody, human IgG2, kappa, V domains shown)
VH: B3 VH with A57G, S79N, K105R, K106Q, L112V
VL: B3 VL with G28D, S53R, L54R, Q55D, Y87F, I92K, N93T
B9: anti-CD40 monoclonal antibody 1605CD (antibody, human IgG2, kappa, V domains shown)
VH: B3 VH with D31N, G49A, L104I, K105R, K106V
VL: B3 VL with G28D, S53R, I92Q, N93S, L94F
B10: anti-CD40 monoclonal antibody 1652CD (antibody, human IgG2, kappa, V domains shown)
VH: B3 VH with S79N, K105R, K106Q, L112V
VL: B3 VL with G28D, S53R, L54R, Q55D, Y87F, I92K, N93T
B11: anti-CD40 monoclonal antibody 1609CD (antibody, human IgG2, kappa, V domains shown)
VH: B3 VH with D31N, A57G, K106I
VL: B3 VL with G28T, R30S, N31S, S53T, I92N, N93A, L94Y

Target: T2, human PD-L1 antigen (ACROBiosystems) (human, UniProt Q9NZQ7 19-238)
T2 construct: Bought antigen coated on ELISA plates
T2 sequence (Q9NZQ7 19-238 limits assumed): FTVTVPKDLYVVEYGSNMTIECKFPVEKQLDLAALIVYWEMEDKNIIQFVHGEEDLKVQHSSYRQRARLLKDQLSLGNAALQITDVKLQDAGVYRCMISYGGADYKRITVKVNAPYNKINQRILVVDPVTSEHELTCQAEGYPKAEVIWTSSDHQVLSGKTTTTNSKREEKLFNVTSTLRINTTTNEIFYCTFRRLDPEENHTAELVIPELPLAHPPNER
Experiment: ELISA, coated antigen
Description: (§1) The binding ability of bispecific antibody to human PD-L1 and human CD40, as well as the species specificity, was detected using an enzyme-linked immunosorbent assay (ELISA). The specific method is as follows: human PD-L1, cynomolgus PD-L1, rat PD-L1, mouse PD-L1, human CD40, cynomolgus CD40, rat CD40, and mouse CD40 antigens (all purchased from ACROBiosystems) were coated with 1 μg/mL carbonate buffer (pH=9.6) in an ELISA plate at 100 μL per well, followed by incubation at 4° C. overnight. The wells were washed 5 times with PBST. 300 μL/well of PBST containing 1% BSA was added to block the wells, and the plate was incubated at room temperature for 1 hour. The wells were washed 5 times with PBST. […] The wells were washed 5 times with PBST. […] The wells were washed 5 times with PBST. Colorimetric substrate TMB was added at 100 μL per well and allowed to develop color at room temperature for 10 minutes, followed by the addition of 1 M sulfuric acid to terminate the reaction. The OD_{450 nm} was read on a microplate reader to analyze the results, and the EC₅₀ was calculated using a 4-parameter fit binding curve.
(§2) These bispecific antibodies are not able to bind to rat PD-L1 and CD40 or mouse PD-L1 and CD40.

EC50 [nM] | Binder
0.039 | B1
0.05 | B2

Target: T3, rat PD-L1 antigen (ACROBiosystems) (rat, UniProt D4AE25 19-239)
T3 construct: Bought antigen coated on ELISA plates; construct not described
T3 sequence (D4AE25 entry or part of it limits assumed): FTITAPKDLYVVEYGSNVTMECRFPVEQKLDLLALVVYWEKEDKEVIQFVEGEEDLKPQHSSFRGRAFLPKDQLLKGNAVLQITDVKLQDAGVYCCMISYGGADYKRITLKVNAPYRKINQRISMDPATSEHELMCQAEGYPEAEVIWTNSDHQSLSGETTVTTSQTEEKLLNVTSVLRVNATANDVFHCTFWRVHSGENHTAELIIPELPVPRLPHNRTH
Experiment: ELISA, coated antigen
Description: as §1, §2

binding result | Binder
no binding | B1
no binding | B2

Target: T4, mouse CD40 antigen (ACROBiosystems) (mouse, UniProt P27512 24-193, limits assumed)
T4 construct: Bought antigen coated on ELISA plates; construct not described
T4 sequence (P27512 24-193 limits assumed): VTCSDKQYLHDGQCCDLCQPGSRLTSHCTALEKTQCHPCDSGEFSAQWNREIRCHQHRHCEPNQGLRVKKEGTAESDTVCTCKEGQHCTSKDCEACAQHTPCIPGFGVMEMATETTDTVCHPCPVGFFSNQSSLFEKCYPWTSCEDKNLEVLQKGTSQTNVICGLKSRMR
Experiment: ELISA, coated antigen
Description: as §1, §2

binding result | Binder
no binding | B1
no binding | B2

Target: T5, cynomolgus CD40 antigen (ACROBiosystems) (cynomolgus, UniProt G7PG38 21-193)
T5 construct: Bought antigen coated on ELISA plates; construct not described
Experiment: ELISA, coated antigen
Description: as §1, §2

EC50 [nM] | Binder
0.018 | B1
0.02 | B2

Target: T6, mouse PD-L1 antigen (ACROBiosystems) (mouse, UniProt Q9EP73 19-239)
T6 construct: Bought antigen coated on ELISA plates; construct not described
T6 sequence (Q9EP73 19-239 limits assumed): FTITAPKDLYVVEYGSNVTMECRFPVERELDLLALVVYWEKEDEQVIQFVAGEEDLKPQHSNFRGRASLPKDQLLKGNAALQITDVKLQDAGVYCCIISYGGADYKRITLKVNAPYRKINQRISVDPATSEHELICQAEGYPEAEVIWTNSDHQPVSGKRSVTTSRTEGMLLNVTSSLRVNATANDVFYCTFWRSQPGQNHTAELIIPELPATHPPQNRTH
Experiment: ELISA, coated antigen
Description: as §1, §2

binding result | Binder
no binding | B1
no binding | B2

Target: T7, cynomolgus PD-L1 antigen (ACROBiosystems) (cynomolgus, UniProt G7PSE7 19-238)
T7 construct: Bought antigen coated on ELISA plates; construct not described
T7 sequence (G7PSE7 entry or part of it): as the sequence (Q9NZQ7 19-238 limits assumed) above, with A33T, A34S, S62N, R68Q, Q82R, F173L, T185A, T192I, H215L counted along it
Experiment: ELISA, coated antigen
Description: as §1, §2

EC50 [nM] | Binder
0.021 | B1
0.025 | B2

Target: T8, human CD40 antigen (ACROBiosystems) (human, UniProt P25942 21-193)
T8 construct: Bought antigen coated on ELISA plates; construct not described
T8 sequence (P25942 21-193 limits assumed): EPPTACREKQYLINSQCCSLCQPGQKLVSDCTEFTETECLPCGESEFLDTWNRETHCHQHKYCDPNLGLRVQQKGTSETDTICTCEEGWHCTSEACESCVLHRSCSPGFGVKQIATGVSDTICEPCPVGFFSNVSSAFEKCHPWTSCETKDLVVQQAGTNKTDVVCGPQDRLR
Experiment: ELISA, coated antigen
Description: as §1, §2

EC50 [nM] | Binder
0.02 | B1
0.024 | B2

Target: T1, rat CD40 antigen (ACROBiosystems)
Experiment: ELISA, coated antigen
Description: as §1, §2

binding result | Binder
no binding | B1
no binding | B2

Target: T4, mouse CD40 antigen (ACROBiosystems)
Experiment: ELISA, coated antigen
Remark: another data set of the same source
Description: as §1, with “monoclonal” for “bispecific”, “to” for “to human PD-L1 and”, “follows:” for “follows: human PD-L1, cynomolgus PD-L1, rat PD-L1, mouse PD-L1,”, “OD₄₅₀ nm” for “OD_{450 nm}”

binding result | Binder
no binding | B3
no binding | B4
no binding | B5
no binding | B6
no binding | B7
no binding | B8
no binding | B9
no binding | B10
no binding | B11

Target: T5, cynomolgus CD40 antigen (ACROBiosystems)
Experiment: ELISA, coated antigen
Remark: another data set of the same source
Description: as §1, with “monoclonal” for “bispecific”, “to” for “to human PD-L1 and”, “follows:” for “follows: human PD-L1, cynomolgus PD-L1, rat PD-L1, mouse PD-L1,”, “OD₄₅₀ nm” for “OD_{450 nm}”

EC50 [nM] | Binder
0.018 | B3
0.017 | B4
0.021 | B5
0.015 | B6
0.009 | B7
0.02 | B8
0.021 | B9
0.018 | B10
0.02 | B11

Target: T8, human CD40 antigen (ACROBiosystems)
Experiment: ELISA, coated antigen
Remark: another data set of the same source
Description: as §1, with “monoclonal” for “bispecific”, “to” for “to human PD-L1 and”, “follows:” for “follows: human PD-L1, cynomolgus PD-L1, rat PD-L1, mouse PD-L1,”, “OD₄₅₀ nm” for “OD_{450 nm}”

EC50 [nM] | Binder
0.02 | B3
0.021 | B4
0.022 | B5
0.014 | B6
0.024 | B7
0.024 | B8
0.022 | B9
0.022 | B10
0.022 | B11

Target: T1, rat CD40 antigen (ACROBiosystems)
Experiment: ELISA, coated antigen
Remark: another data set of the same source
Description: as §1, with “monoclonal” for “bispecific”, “to” for “to human PD-L1 and”, “follows:” for “follows: human PD-L1, cynomolgus PD-L1, rat PD-L1, mouse PD-L1,”, “OD₄₅₀ nm” for “OD_{450 nm}”

binding result | Binder
no binding | B3
no binding | B4
no binding | B5
no binding | B6
no binding | B7
no binding | B8
no binding | B9
no binding | B10
no binding | B11

Target: T8, human CD40 antigen (ACROBiosystems)
Experiment: bridging ELISA: coated human CD40, serially diluted bispecific antibody, detection with biotin-labeled human PD-L1 and streptavidin-HRP, OD450
Description: Antigen human CD40 (purchased from ACROBiosystems) was coated with 1 μg/mL carbonate buffer (pH=9.6) in an ELISA plate at 100 μL per well, followed by incubation at 4° C. overnight. The wells were washed 5 times with PBST. 300 μL/well of PBST containing 1% BSA was added to block the wells, and the plate was incubated at room temperature for 1 hour. The wells were washed 5 times with PBST. […] The wells were washed 5 times with PBST. Biotin-labeled human PD-L1 (FutureGen Biopharmaceutical) diluted with PBST containing 1% BSA was added at 100 μL per well, and the plate was incubated at room temperature for 1 hour. The wells were washed 5 times with PBST. Streptavidin-HRP (BioLegend, Cat. No. 405210) diluted with PBST containing 1% BSA was added at 100 μL per well, and the plate was incubated at room temperature for 30 minutes. Colorimetric substrate TMB was added at 100 μL per well and allowed to develop color at room temperature for 10 minutes, followed by the addition of 1 M sulfuric acid to terminate the reaction. The OD_[…] was read on a microplate reader to analyze the results, and the EC₅₀ was calculated using a 4-parameter fit binding curve.

EC50 [nM] | Binder
0.039 | B1
0.038 | B2

Target: T9, CD40 on HEK-Blue CD40L cells (InvivoGen) (UniProt P25942 21-277, limits assumed)
T9 sequence (P25942 21-277 limits assumed): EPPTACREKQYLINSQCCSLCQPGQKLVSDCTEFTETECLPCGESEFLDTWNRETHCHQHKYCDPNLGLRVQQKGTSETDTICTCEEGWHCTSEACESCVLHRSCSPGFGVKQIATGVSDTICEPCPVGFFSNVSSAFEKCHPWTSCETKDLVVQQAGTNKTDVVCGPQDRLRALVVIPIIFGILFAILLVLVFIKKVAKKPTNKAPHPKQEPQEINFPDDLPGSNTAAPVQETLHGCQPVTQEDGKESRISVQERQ
Experiment: cell-based or functional assay

CD40 agonistic activity (A)/(B) Ratio, EC50 without over with CHO/PD-L1 | CD40 agonistic activity EC50 (nM) with CHO/PD-L1 (B), SEAP reporter [nM] | CD40 agonistic activity EC50 (nM) without CHO/PD-L1 (A), SEAP reporter [nM] | Binder
2.2 | 0.018 | 0.039 | B1
3.2 | 0.024 | 0.075 | B2

Target: T9, CD40 on HEK-Blue CD40L cells (InvivoGen)
Experiment: flow cytometry, competition with 10 nM Biotin-CD40L on HEK-Blue CD40L cells
Description: The blocking effect of bispecific antibodies on CD40/CD40L binding was tested using HEK-Blue CD40L cells that highly express CD40. The specific method is as follows: HEK-Blue CD40L cells were collected and resuspended in pre-cooled PBS containing 2% FBS at a density of 1E7 cells/mL, and then added to a 96-well plate at 50 μL per well, i.e., 5E5 cells/well. Biotin-CD40L (FutureGen Biopharmaceutical) and serially diluted bispecific antibody were then added at 50 μL per well, with a final concentration of Biotin-CD40L of 10 nM, and the plate was incubated at 4° C. for 1 hour. The wells were washed twice with pre-cooled PBS. Streptavidin-PE (BioLegend, Cat. No. 405203) diluted in pre-cooled PBS containing 2% FBS was added, and the plate was incubated at 4° C. for 30 minutes. The wells were washed twice with pre-cooled PBS. The cells were then resuspended in pre-cooled PBS containing 2% FBS and assayed by flow cytometry.

IC50 [nM] | Binder
0.807 | B1
1.09 | B2
